Results on one substance are retold here after publication PMC2413239.

In this assay the target is X. laevis FcRγ subunit, c-myc-tagged (X. laevis).

“XFL1.7-HA with its own TM1 region (X. laevis XFL1.7, extracellular plus transmembrane part) (domain or fragment)”: the surface expression of XFL1.7-HA on transiently transfected 293T cells (anti-HA surface staining, flow cytometry), alone against co-transfected with FcRγ was determined as 2 fold.
